Biological target: albumin
Assay: albumin binding constant (K), same method as the earlier dye-albumin study; method not described

- Ka: 86000 M⁻¹
Substance: LS838: Cypate-Cyclo(DCys-Gly-Arg-Asp-Ser-Pro-Cys)-Tyr-OH (peptide)
